Measurements taken from the Immune Epitope Database (IEDB).
Values belong to the sequence of their own block, whether it stands above or below them.

How the values were obtained:
HLA-A*01:01 = assay: IEDB peptide-MHC binding, purified MHC/direct/fluorescence; filed as Kd, often an IC50 or EC50 that approximates it; ≥ and ≤ were set here for values at or beyond the usual limits of such assays
HLA-A*80:01 = assay: as above
HLA-A*03:19 = assay: IEDB peptide-MHC binding, purified MHC/competitive/fluorescence; filed as Kd, often an IC50 or EC50 that approximates it; ≥ and ≤ were set here for values at or beyond the usual limits of such assays
HLA-A*32:15 = assay: as above; settings: source organism: Mus musculus
HLA-A*68:23 = assay: as above; settings: source organism: Mus musculus
HLA-B*15:42 = assay: as above
HLA-B*45:06 = assay: as above
HLA-B*83:01 = assay: as above
HLA-C*06:02 [1] = assay: as above
HLA-B*27:05 = assay: as above
HLA-B*58:01 = assay: as above
HLA-A*02:01 [2] = assay: IEDB peptide-MHC binding, purified MHC/direct/fluorescence; filed as Kd, often an IC50 or EC50 that approximates it; ≥ and ≤ were set here for values at or beyond the usual limits of such assays; settings: source organism: Giardia lamblia ATCC 50803
HLA-A*02:12 [3] = assay: as above; settings: source organism: Giardia lamblia ATCC 50803
HLA-A*02:16 [4] = assay: as above; settings: source organism: Giardia lamblia ATCC 50803
HLA-A*69:01 [5] = assay: as above; settings: source organism: Giardia lamblia ATCC 50803
HLA-A*02:50 = assay: IEDB peptide-MHC binding, purified MHC/competitive/fluorescence; filed as Kd, often an IC50 or EC50 that approximates it; ≥ and ≤ were set here for values at or beyond the usual limits of such assays
HLA-A*02:01 [6] = assay: as above
HLA-A*02:03 = assay: as above; settings: source organism: Encephalitozoon cuniculi GB-M1
HLA-A*02:06 = assay: as above; settings: source organism: Encephalitozoon cuniculi GB-M1
HLA-A*02:11 = assay: as above; settings: source organism: Encephalitozoon cuniculi GB-M1
HLA-A*02:12 [7] = assay: as above; settings: source organism: Encephalitozoon cuniculi GB-M1
HLA-A*02:16 [8] = assay: as above; settings: source organism: Encephalitozoon cuniculi GB-M1
HLA-A*02:19 = assay: as above; settings: source organism: Encephalitozoon cuniculi GB-M1
HLA-A*69:01 [9] = assay: as above; settings: source organism: Encephalitozoon cuniculi GB-M1
HLA-C*07:02 = assay: IEDB peptide-MHC binding, purified MHC/direct/fluorescence; filed as Kd, often an IC50 or EC50 that approximates it; ≥ and ≤ were set here for values at or beyond the usual limits of such assays; settings: source organism: Escherichia coli O157:H7 str. EDL933
HLA-C*14:02 = assay: as above
HLA-C*15:02 = assay: as above
HLA-A*31:01 = assay: IEDB peptide-MHC binding, purified MHC/competitive/fluorescence; filed as Kd, often an IC50 or EC50 that approximates it; ≥ and ≤ were set here for values at or beyond the usual limits of such assays
HLA-A*32:07 = assay: as above
HLA-B*27:20 = assay: as above
HLA-B*39:01 = assay: as above
HLA-B*40:13 = assay: as above; settings: source organism: Escherichia coli O157:H7 str. EDL933
HLA-C*05:01 = assay: IEDB peptide-MHC binding, purified MHC/direct/fluorescence; filed as Kd, often an IC50 or EC50 that approximates it; ≥ and ≤ were set here for values at or beyond the usual limits of such assays; settings: source organism: Yersinia pestis Nepal516
HLA-C*06:02 [10] = assay: as above; settings: source organism: Yersinia pestis Nepal516
[11] = source organism: Camelpox virus M-96
[12] = source organism: Encephalitozoon cuniculi GB-M1
[13] = source organism: Mammarenavirus lassaense
[14] = source organism: Escherichia coli O157:H7 str. EDL933
[15] = source organism: Yersinia pestis Nepal516

Sequence: MTDLSKKGY
Kd (HLA-A*01:01; [11]): 2.8 nM
Kd (HLA-A*80:01; [11]): ≥ 20000 nM

Kd (HLA-A*03:19; source organism: Mus musculus): 3230 nM
Kd (HLA-A*32:15): ≥ 20000 nM
Kd (HLA-A*68:23): 23.1 nM
Kd (HLA-B*15:42; source organism: Mus musculus): ≥ 5000 nM
Kd (HLA-B*45:06; source organism: Mus musculus): ≥ 5000 nM
Kd (HLA-B*83:01; source organism: Mus musculus): ≥ 5000 nM
Kd (HLA-C*06:02 [1]; source organism: Mus musculus): 1350 nM
Sequence: GVPKTHLEL

Kd (HLA-B*27:05; source organism: Escherichia coli 536): ≥ 20000 nM
Sequence: GKVERMVQY

Sequence: VSLGAISFW
Kd (HLA-B*58:01; source organism: Influenza A virus (A/Leningrad/1954/1(H1N1))): ≤ 1 nM

Sequence: GMNPYHLAA
Kd (HLA-A*02:01 [2]): 4380 nM
Kd (HLA-A*02:12 [3]): 296 nM
Kd (HLA-A*02:16 [4]): 65 nM
Kd (HLA-A*69:01 [5]): ≥ 20000 nM
Kd (HLA-A*02:50; source organism: Giardia lamblia ATCC 50803): 12.7 nM

Kd (HLA-A*02:01 [6]; [12]): 654 nM
Kd (HLA-A*02:03): 29 nM
Kd (HLA-A*02:06): 8.7 nM
Kd (HLA-A*02:11): 2.9 nM
Kd (HLA-A*02:12 [7]): 42.5 nM
Kd (HLA-A*02:16 [8]): 6.8 nM
Kd (HLA-A*02:19): 437 nM
Kd (HLA-A*02:50; [12]): 12.3 nM
Kd (HLA-A*69:01 [9]): 5700 nM
Sequence: ALEEGRKYV

Sequence: ALTDLGLIY
Kd (HLA-A*01:01; [13]): 34.7 nM
Kd (HLA-A*80:01; [13]): 1.8 nM

Kd (HLA-C*07:02): 859 nM
Kd (HLA-C*14:02; [14]): 2340 nM
Kd (HLA-C*15:02; [14]): 2080 nM
Kd (HLA-A*02:01 [6]; [14]): 2 nM
Kd (HLA-A*03:19; [14]): 886 nM
Kd (HLA-A*31:01; [14]): 2.1 nM
Kd (HLA-A*32:07; [14]): 1.1 nM
Kd (HLA-B*15:42; [14]): ≥ 5000 nM
Kd (HLA-B*27:20; [14]): 34 nM
Kd (HLA-B*39:01; [14]): 2190 nM
Kd (HLA-B*40:13): 3.2 nM
Kd (HLA-B*45:06; [14]): ≥ 5000 nM
Kd (HLA-B*58:01; [14]): 16.8 nM
Kd (HLA-B*83:01; [14]): ≥ 5000 nM
Kd (HLA-C*06:02 [1]; [14]): 798 nM
Sequence: RMMGVKYLM

Sequence: RAMRMVYYL
Kd (HLA-C*05:01): 124 nM
Kd (HLA-C*06:02 [10]): 798 nM
Kd (HLA-C*14:02; [15]): 960 nM
Kd (HLA-C*15:02; [15]): 34 nM
Kd (HLA-A*02:01 [6]; [15]): 0.8 nM
Kd (HLA-A*03:19; [15]): 206 nM
Kd (HLA-A*31:01; [15]): 4 nM
Kd (HLA-A*32:07; [15]): 77.6 nM
Kd (HLA-B*15:42; [15]): ≥ 5000 nM
Kd (HLA-B*27:05; [15]): 157 nM
Kd (HLA-B*27:20; [15]): 14 nM
Kd (HLA-B*39:01; [15]): 421 nM
Kd (HLA-B*45:06; [15]): ≥ 5000 nM
Kd (HLA-B*83:01; [15]): ≥ 5000 nM

Sequence: NRDGDSYYY
Kd (HLA-A*80:01; source organism: Yellow fever virus): 478 nM
